Measured values from publication PMC9482650, “Quantitative fragmentomics allow affinity mapping of interactomes” (Nature Communications, 2022).

T1: INTU, Q9ULD6
T1 sequence (Q9ULD6 180-273, limits assumed, looked up): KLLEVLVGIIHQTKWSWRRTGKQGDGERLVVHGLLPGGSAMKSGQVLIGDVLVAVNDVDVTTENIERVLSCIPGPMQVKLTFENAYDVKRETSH

T2: LNX2_4, Q8N448
T2 sequence (Q8N448 595-690, limits assumed, looked up): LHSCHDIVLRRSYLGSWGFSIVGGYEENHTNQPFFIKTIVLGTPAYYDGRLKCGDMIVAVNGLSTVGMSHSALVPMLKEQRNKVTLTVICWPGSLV

T3: MPDZ_13, O75970
T3 sequence (O75970 1982-2070, limits assumed, looked up): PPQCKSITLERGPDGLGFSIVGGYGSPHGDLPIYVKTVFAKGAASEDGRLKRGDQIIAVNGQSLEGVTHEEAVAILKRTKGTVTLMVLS

T4: MPDZ_3, O75970
T4 sequence (O75970 372-473, limits assumed, looked up): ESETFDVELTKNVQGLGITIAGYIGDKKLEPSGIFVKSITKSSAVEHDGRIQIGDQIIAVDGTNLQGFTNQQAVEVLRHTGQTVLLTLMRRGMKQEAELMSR

T5: MPDZ_6, O75970
T5 sequence (O75970 1003-1099, limits assumed, looked up): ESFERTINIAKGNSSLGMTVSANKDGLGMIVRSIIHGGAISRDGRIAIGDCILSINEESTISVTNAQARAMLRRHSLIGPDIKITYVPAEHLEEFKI

T6: MPP5, Q8N3R9
T6 sequence (Q8N3R9 251-346, limits assumed, looked up): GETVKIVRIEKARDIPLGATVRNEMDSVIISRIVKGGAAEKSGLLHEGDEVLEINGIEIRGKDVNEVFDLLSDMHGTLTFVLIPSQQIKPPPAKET

T7: PARD6G, Q9BYG4
T7 sequence (Q9BYG4 153-261, limits assumed, looked up): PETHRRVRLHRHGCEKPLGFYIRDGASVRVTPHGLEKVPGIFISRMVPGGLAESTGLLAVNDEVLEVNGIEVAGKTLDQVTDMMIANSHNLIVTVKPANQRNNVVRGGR

T8: PDZD4, Q76G19
T8 sequence (Q76G19 125-224, limits assumed, looked up): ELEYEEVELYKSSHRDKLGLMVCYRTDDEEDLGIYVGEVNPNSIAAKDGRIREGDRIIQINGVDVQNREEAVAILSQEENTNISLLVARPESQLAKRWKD

T9: PDZD7_1, Q9H5P4
T9 sequence (Q9H5P4 81-178, limits assumed, looked up): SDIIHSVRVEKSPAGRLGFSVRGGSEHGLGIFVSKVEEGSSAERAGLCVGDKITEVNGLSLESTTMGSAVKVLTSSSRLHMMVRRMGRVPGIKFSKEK

T10: SYNPO2L, Q9H987
T10 sequence (Q9H987 1-98, limits assumed, looked up): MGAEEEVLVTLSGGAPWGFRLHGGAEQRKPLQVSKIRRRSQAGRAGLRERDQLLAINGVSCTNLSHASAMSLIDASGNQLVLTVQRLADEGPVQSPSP


Key:
Assay in all cases: holdup assay
Design in all cases: key: below the threshold = too weak to quantify, mostly under pKd 3.1 to 4
Settings in all cases: plain residues with an end cap or a label only (N-terminal biotin on a linker: ttds)
CARD14, Q9BXL6 = target: CARD14, Q9BXL6
DVL2, O14641 = target: DVL2, O14641
INTU, Q9ULD6 = target: T1, INTU, Q9ULD6
LNX2_4, Q8N448 = target: T2, LNX2_4, Q8N448
MAGI3_4, Q5TCQ9 = target: MAGI3_4, Q5TCQ9
MPDZ_13, O75970 = target: T3, MPDZ_13, O75970
MPDZ_3, O75970 = target: T4, MPDZ_3, O75970
MPDZ_6, O75970 = target: T5, MPDZ_6, O75970
MPP5, Q8N3R9 = target: T6, MPP5, Q8N3R9
NHERF4_3, Q86UT5 = target: NHERF4_3, Q86UT5
O00560 = target: O00560
O43166 = target: O43166
PARD3B_2, Q8TEW8 = target: PARD3B_2, Q8TEW8
PARD6G, Q9BYG4 = target: T7, PARD6G, Q9BYG4
PDZD4, Q76G19 = target: T8, PDZD4, Q76G19
PDZD7_1, Q9H5P4 = target: T9, PDZD7_1, Q9H5P4
PDZRN4_2, Q6ZMN7 = target: PDZRN4_2, Q6ZMN7
Q12923 = target: Q12923
Q13368 = target: Q13368
Q6ZWJ1 = target: Q6ZWJ1
Q96HC4 = target: Q96HC4
Q96JY6 = target: Q96JY6
Q9C0E4 = target: Q9C0E4
Q9NPB6 = target: Q9NPB6
Q9UDY2 = target: Q9UDY2
RGS3, P49796-9 = target: RGS3, P49796-9
SDCBP_1, O00560 = target: SDCBP_1, O00560
SYNPO2L, Q9H987 = target: T10, SYNPO2L, Q9H987
TJP1_1, Q07157 = target: TJP1_1, Q07157
Chain of TJP1_1, Q07157 (Q07157 18-120): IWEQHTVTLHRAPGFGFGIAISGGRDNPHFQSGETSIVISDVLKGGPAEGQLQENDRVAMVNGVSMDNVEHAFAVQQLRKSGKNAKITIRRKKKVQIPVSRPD

Chain of PDZRN4_2, Q6ZMN7 (Q6ZMN7 389-498): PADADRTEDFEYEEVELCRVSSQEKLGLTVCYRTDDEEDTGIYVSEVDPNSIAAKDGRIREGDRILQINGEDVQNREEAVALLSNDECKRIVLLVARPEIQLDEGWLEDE
Chain of NHERF4_3, Q86UT5 (Q86UT5 325-412): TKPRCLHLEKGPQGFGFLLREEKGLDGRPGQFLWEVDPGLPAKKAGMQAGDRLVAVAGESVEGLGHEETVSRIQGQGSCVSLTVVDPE
Chain of DVL2, O14641 (O14641 260-359): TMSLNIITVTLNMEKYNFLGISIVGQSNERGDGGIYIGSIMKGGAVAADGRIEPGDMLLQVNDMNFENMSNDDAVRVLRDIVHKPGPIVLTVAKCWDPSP
Chain of CARD14, Q9BXL6 (Q9BXL6 558-663): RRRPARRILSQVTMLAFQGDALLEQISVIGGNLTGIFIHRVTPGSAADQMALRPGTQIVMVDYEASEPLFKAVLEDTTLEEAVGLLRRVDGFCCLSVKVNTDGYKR
Chain of RGS3, P49796-9 (P49796 other isoform, or with tags, fused parts or gaps): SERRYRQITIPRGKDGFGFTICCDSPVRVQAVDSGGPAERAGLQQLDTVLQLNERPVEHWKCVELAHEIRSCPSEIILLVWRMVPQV
Chain of SDCBP_1, O00560 (O00560 111-198): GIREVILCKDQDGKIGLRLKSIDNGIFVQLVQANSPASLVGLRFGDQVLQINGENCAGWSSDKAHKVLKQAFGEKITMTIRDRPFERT
Chain of PARD3B_2, Q8TEW8 (Q8TEW8 376-471): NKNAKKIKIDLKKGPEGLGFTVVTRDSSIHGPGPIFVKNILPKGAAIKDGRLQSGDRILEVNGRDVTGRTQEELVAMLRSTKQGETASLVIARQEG
Chain of MAGI3_4, Q5TCQ9 (Q5TCQ9 716-815): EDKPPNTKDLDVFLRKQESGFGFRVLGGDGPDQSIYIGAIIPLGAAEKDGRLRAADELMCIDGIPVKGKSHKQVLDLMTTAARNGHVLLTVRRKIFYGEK

| Binder | pKd (CARD14, Q9BXL6) | pKd (DVL2, O14641) | pKd (INTU, Q9ULD6) | pKd (LNX2_4, Q8N448) | pKd (MAGI3_4, Q5TCQ9) | pKd (MPDZ_13, O75970) | pKd (MPDZ_3, O75970) | pKd (MPDZ_6, O75970) | pKd (MPP5, Q8N3R9) | pKd (NHERF4_3, Q86UT5) | pKd (O00560) | pKd (O43166) | pKd (PARD3B_2, Q8TEW8) | pKd (PARD6G, Q9BYG4) | pKd (PDZD4, Q76G19) | pKd (PDZD7_1, Q9H5P4) | pKd (PDZRN4_2, Q6ZMN7) | pKd (Q12923) | pKd (Q13368) | pKd (Q6ZWJ1) | further results |
| --- | --- | --- | --- | --- | --- | --- | --- | --- | --- | --- | --- | --- | --- | --- | --- | --- | --- | --- | --- | --- | --- |
| NYWPGKETQL [SLCO1C1, Q9NYB5] | below the threshold | below the threshold | below the threshold | 4.73 | below the threshold | below the threshold | below the threshold | below the threshold | below the threshold | 4.56 | below the threshold | below the threshold | below the threshold | below the threshold | below the threshold | below the threshold | below the threshold | below the threshold | below the threshold | below the threshold | pKd (Q96HC4): below the threshold; pKd (Q96JY6): below the threshold; pKd (Q9C0E4): below the threshold; pKd (Q9NPB6): below the threshold; pKd (Q9UDY2): below the threshold; pKd (RGS3, P49796-9): below the threshold; pKd (SDCBP_1, O00560): below the threshold; pKd (SYNPO2L, Q9H987): below the threshold; pKd (TJP1_1, Q07157): below the threshold |
| HIVEALETDV [PBK, Q96KB5] | below the threshold | 5.15 | 4.9 | below the threshold | below the threshold | below the threshold | below the threshold | below the threshold | below the threshold | below the threshold | below the threshold | below the threshold | below the threshold | below the threshold | below the threshold | below the threshold | below the threshold | below the threshold | below the threshold | below the threshold | pKd (Q96HC4): below the threshold; pKd (Q96JY6): below the threshold; pKd (Q9C0E4): below the threshold; pKd (Q9NPB6): below the threshold; pKd (Q9UDY2): below the threshold; pKd (RGS3, P49796-9): below the threshold; pKd (SDCBP_1, O00560): below the threshold; pKd (SYNPO2L, Q9H987): below the threshold; pKd (TJP1_1, Q07157): below the threshold |
| QPGTPTRTAV [MAP2K2, P36507] | below the threshold | 4.8 | below the threshold | below the threshold | below the threshold | below the threshold | below the threshold | below the threshold | below the threshold | below the threshold | below the threshold | below the threshold | below the threshold | below the threshold | 4.21 | below the threshold | below the threshold | below the threshold | below the threshold | below the threshold | pKd (Q96HC4): below the threshold; pKd (Q96JY6): below the threshold; pKd (Q9C0E4): below the threshold; pKd (Q9NPB6): below the threshold; pKd (Q9UDY2): below the threshold; pKd (RGS3, P49796-9): below the threshold; pKd (SDCBP_1, O00560): below the threshold; pKd (SYNPO2L, Q9H987): below the threshold; pKd (TJP1_1, Q07157): below the threshold |
